In paper PMC10872421:

Columns and labels:
[1] = target: FMAL-labeled RLC-exchanged full-length cardiac myosin (porcine (ventricles) | human) (UniProt P79293); test: FRET or BRET
[2] = target: FMAL-labeled F-actin (rabbit) (UniProt P68135); test: FRET or BRET
[3] = target: FMAL-labeled F-actin (rabbit) (UniProt P68135); test: co-sedimentation
[4] = target: FMAL-labeled F-actin (rabbit skeletal muscle) (rabbit) (UniProt P68135); test: FRET or BRET

Q: With “C0-C2^(cys249, E334K), PKA-phosphorylated (domain or fragment)” as the substance, how does the FLT-FRET at 2.5 μM relative to WT (relative to WT) [1] read?
A: Its FLT-FRET at 2.5 μM relative to WT (relative to WT) is 1.7.

Q: How did the FLT-FRET at 2.5 μM relative to WT (relative to WT) [2] turn out when “C0-C2^(cys249, L349R) (domain or fragment)” was run?
A: Its FLT-FRET at 2.5 μM relative to WT (relative to WT) is 1.1.

Q: How did the FLT-FRET at 2.5 μM relative to WT (relative to WT) [2] turn out when “C0-C2^(cys249, L349R), PKA-phosphorylated (domain or fragment)” was run?
A: The FLT-FRET at 2.5 μM relative to WT (relative to WT) was 1.31.

Q: How did the FLT-FRET at 2.5 μM relative to WT (relative to WT) [1] turn out when “C0-C2^(cys330, E334K), PKA-phosphorylated (domain or fragment)” was run?
A: The FLT-FRET at 2.5 μM relative to WT (relative to WT) was 2.

Q: How did the FLT-FRET at 2.5 μM relative to WT (relative to WT) [1] turn out when “C0-C2^(cys330, L349R) (domain or fragment)” was run?
A: The FLT-FRET at 2.5 μM relative to WT (relative to WT) was 1.6.

Q: For “C0-C2^(cys330, R282W) (domain or fragment)”, which FLT-FRET at 2.5 μM relative to WT (relative to WT) [2] is on record?
A: Its FLT-FRET at 2.5 μM relative to WT (relative to WT) is 1.1.

Q: What does the source list for C0-C2^cys85 (domain or fragment)?
A: EC50 [2]: 1.4 µM; EC50 [1]: 9 µM

Q: For “C0-C2^cys85, PKA-phosphorylated (domain or fragment)”, which fold increase of EC50 upon phosphorylation [3] is on record?
A: Its fold increase of EC50 upon phosphorylation is 1.1 fold.

Q: What about the fold change of EC50 upon phosphorylation [2] of the same substance?
A: Its fold change of EC50 upon phosphorylation is 2.9 fold.

Q: What about the reduction of FRET at 2.5 μM upon phosphorylation [2] of the same substance?
A: The reduction of FRET at 2.5 μM upon phosphorylation was 52%.

Q: What does the source list for C0-C2^cys249 (domain or fragment)?
A: EC50 [2]: 3 µM; EC50 [1]: 3.4 µM

Q: “C0-C2^cys249, PKA-phosphorylated (domain or fragment)” was tested. Which fold increase of EC50 upon phosphorylation [3] did it give?
A: The fold increase of EC50 upon phosphorylation was 1.6 fold.

Q: What about the fold change of EC50 upon phosphorylation [2] of the same substance?
A: Its fold change of EC50 upon phosphorylation is 1.7 fold.

Q: And the reduction of FRET at 2.5 μM upon phosphorylation [2]?
A: The reduction of FRET at 2.5 μM upon phosphorylation was 52%.

Q: C0-C2^cys330 (domain or fragment) was tested. Which EC50 [2] did it give?
A: The EC50 was 6.3 µM.

Q: And the EC50 [1]?
A: The EC50 was 6.9 µM.

Q: Which EC50 [4] does the source give for “TMR-C0-C2^(cys249, L352P) (domain or fragment)” here?
A: The EC50 was 1.31 µM.

Q: With TMR-C0-C2^cys249 (domain or fragment) as the substance, how does the EC50 [4] read?
A: Its EC50 is 2.12 µM.
